Paper PMC6100179, “Kinetic Basis of the Bifunctionality of SsoII DNA Methyltransferase”
Numbering of substitutions follows the chain as printed.

Legend:
[1] = molecular target: T1, M.SsoII (two subunits on DNA) (UniProt P34879 1-379); assay: EMSA; 100 uM AdoHcy; cooperative, C2 much more than C1; EMSA: 50 mM Tris-HCl pH 7.5, 100 mM NaCl, 5 mM beta-mercaptoethanol, 0.1 mg/mL BSA, 25% glycerol, 100 uM AdoHcy, 37 C then room temperature, 2.5 nM DNA; stopped-flow: 50 mM Tris-HCl pH 7.5, 100 mM NaCl, 5 mM beta-mercaptoethanol, 25 C, 100 nM DNA; conditions: protein: recombinant; tags: N-terminal His-tag MRGS(H)6TDPLETC; chain copies: 2; label: TAMRA (internal, on dU C5, position 5)
T1 sequence: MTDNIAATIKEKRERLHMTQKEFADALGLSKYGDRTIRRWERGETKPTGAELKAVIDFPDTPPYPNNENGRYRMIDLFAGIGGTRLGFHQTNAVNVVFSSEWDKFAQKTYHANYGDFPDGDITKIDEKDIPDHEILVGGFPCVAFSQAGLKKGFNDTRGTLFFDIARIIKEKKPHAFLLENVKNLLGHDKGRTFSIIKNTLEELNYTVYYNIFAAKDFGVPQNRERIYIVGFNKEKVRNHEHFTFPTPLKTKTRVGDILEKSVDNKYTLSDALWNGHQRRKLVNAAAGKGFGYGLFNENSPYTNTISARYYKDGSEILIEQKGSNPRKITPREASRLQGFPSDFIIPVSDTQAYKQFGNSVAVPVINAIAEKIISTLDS

[2] = molecular target: T2, M.SsoII (monomer on DNA) (UniProt P34879 1-379); assay: stopped-flow fluorescence anisotropy; 100 uM AdoHcy; k1 352 uM-1 s-1, k-1 71 s-1, k2 2.30 s-1, k-2 12.8 s-1; EMSA: 50 mM Tris-HCl pH 7.5, 100 mM NaCl, 5 mM beta-mercaptoethanol, 0.1 mg/mL BSA, 25% glycerol, 100 uM AdoHcy, 37 C then room temperature, 2.5 nM DNA; stopped-flow: 50 mM Tris-HCl pH 7.5, 100 mM NaCl, 5 mM beta-mercaptoethanol, 25 C, 100 nM DNA; conditions: protein: recombinant; tags: N-terminal His-tag MRGS(H)6TDPLETC; label: TAMRA (internal, on dU C5, position 5)
T2 sequence: T1 sequence

[3] = molecular target: T1, M.SsoII (two subunits on DNA); assay: EMSA; 100 uM AdoHcy; C2* above 2:1 protein/DNA, second molecule presumably nonspecific; EMSA: 50 mM Tris-HCl pH 7.5, 100 mM NaCl, 5 mM beta-mercaptoethanol, 0.1 mg/mL BSA, 25% glycerol, 100 uM AdoHcy, 37 C then room temperature, 2.5 nM DNA; stopped-flow: 50 mM Tris-HCl pH 7.5, 100 mM NaCl, 5 mM beta-mercaptoethanol, 25 C, 100 nM DNA; conditions: protein: recombinant; tags: N-terminal His-tag MRGS(H)6TDPLETC; chain copies: 2; label: TAMRA
[4] = molecular target: T2, M.SsoII (monomer on DNA); assay: stopped-flow fluorescence anisotropy; 100 uM AdoMet; k1 386 uM-1 s-1, k-1 154 s-1, k2 0.68 s-1, k-2 6.5 s-1; EMSA: 50 mM Tris-HCl pH 7.5, 100 mM NaCl, 5 mM beta-mercaptoethanol, 0.1 mg/mL BSA, 25% glycerol, 100 uM AdoHcy, 37 C then room temperature, 2.5 nM DNA; stopped-flow: 50 mM Tris-HCl pH 7.5, 100 mM NaCl, 5 mM beta-mercaptoethanol, 25 C, 100 nM DNA; conditions: protein: recombinant; tags: N-terminal His-tag MRGS(H)6TDPLETC; label: TAMRA (position 21)
[5] = molecular target: T2, M.SsoII (monomer on DNA); assay: stopped-flow fluorescence anisotropy; 100 uM AdoHcy; k1 226 uM-1 s-1, k-1 158 s-1, k2* 0.22 s-1, k-2* 0.50 s-1; EMSA: 50 mM Tris-HCl pH 7.5, 100 mM NaCl, 5 mM beta-mercaptoethanol, 0.1 mg/mL BSA, 25% glycerol, 100 uM AdoHcy, 37 C then room temperature, 2.5 nM DNA; stopped-flow: 50 mM Tris-HCl pH 7.5, 100 mM NaCl, 5 mM beta-mercaptoethanol, 25 C, 100 nM DNA; conditions: protein: recombinant; tags: N-terminal His-tag MRGS(H)6TDPLETC; label: TAMRA (bottom 33 or 35)
[6] = molecular target: T2, M.SsoII (monomer on DNA); assay: stopped-flow fluorescence anisotropy; 100 uM AdoHcy; k1 181 uM-1 s-1, k-1 143 s-1, k2* 0.40 s-1, k-2* 1.5 s-1; EMSA: 50 mM Tris-HCl pH 7.5, 100 mM NaCl, 5 mM beta-mercaptoethanol, 0.1 mg/mL BSA, 25% glycerol, 100 uM AdoHcy, 37 C then room temperature, 2.5 nM DNA; stopped-flow: 50 mM Tris-HCl pH 7.5, 100 mM NaCl, 5 mM beta-mercaptoethanol, 25 C, 100 nM DNA; conditions: protein: recombinant; tags: N-terminal His-tag MRGS(H)6TDPLETC; label: TAMRA (top 25 or bottom 33/35)
[7] = molecular target: T1, M.SsoII (two subunits on DNA); assay: EMSA; 100 uM AdoHcy; C1 and C2; EMSA: 50 mM Tris-HCl pH 7.5, 100 mM NaCl, 5 mM beta-mercaptoethanol, 0.1 mg/mL BSA, 25% glycerol, 100 uM AdoHcy, 37 C then room temperature, 2.5 nM DNA; stopped-flow: 50 mM Tris-HCl pH 7.5, 100 mM NaCl, 5 mM beta-mercaptoethanol, 25 C, 100 nM DNA; conditions: protein: recombinant; tags: N-terminal His-tag MRGS(H)6TDPLETC; chain copies: 2; label: TAMRA (position 5)
[8] = molecular target: T2, M.SsoII (monomer on DNA); assay: stopped-flow fluorescence anisotropy; 100 uM AdoMet; k1 390 uM-1 s-1, k-1 88 s-1, k2 1.13 s-1, k-2 9.6 s-1; EMSA: 50 mM Tris-HCl pH 7.5, 100 mM NaCl, 5 mM beta-mercaptoethanol, 0.1 mg/mL BSA, 25% glycerol, 100 uM AdoHcy, 37 C then room temperature, 2.5 nM DNA; stopped-flow: 50 mM Tris-HCl pH 7.5, 100 mM NaCl, 5 mM beta-mercaptoethanol, 25 C, 100 nM DNA; conditions: protein: recombinant; tags: N-terminal His-tag MRGS(H)6TDPLETC; label: TAMRA (position 5)

B1: 60reg-1 (dsDNA)
DNA 1: ACGTTCATAATTGGAATCAAAACAGGACAAATTGTCCTAAAACCAACACTTAATTCTGGT
DNA 2: ACCAGAATTAAGTGTTGGTTTTAGGACAATTTGTCCTGTTTTGATTCCAATTATGAACGT
- binding result [1]: binds
- binding result [2]: binds

B2: 60half-2 (dsDNA)
DNA 1: B1 DNA 1 with A24C, G25A, G26T, A27T, C28A, A29T, A30C
DNA 2: B1 DNA 2 with T31G, T32A, G33T, T34A, C35A, C36T, T37G
- binding result [3]: binds

B3: 60half-1 (dsDNA)
DNA 1: B1 DNA 1 with T32C, T33A, G34T, C36A, C37T, T38C
DNA 2: B1 DNA 2 with A23G, G24A, G25T, C27A, A28T, A29G
- binding result [3]: binds

B4: 60reg-4 (dsDNA)
DNA 1: GAAAGTTTTTTCATGCACGTTCATAATTGGAATCAAAACAGGACAAATTGTCCTAAAACC
DNA 2: GGTTTTAGGACAATTTGTCCTGTTTTGATTCCAATTATGAACGTGCATGAAAAAACTTTC
- binding result [4]: binds

B5: 60met-mC (dsDNA)
DNA 1: GACTTACAGTTGATAGTATGAAGCTAGAGCCAGGTTGGCAGCATTCTACTCATGTACTTG
DNA 2: CAAGTACATGAGTAGAATGCTGCCAACCTGGCTCTAGCTTCATACTATCAACTGTAAGTC
modifications: 5-methylcytosine in top strand of methylation site
- binding result [5]: binds

B6: 60met (dsDNA)
DNA 1: B5 DNA 1
DNA 2: B5 DNA 2
- binding result [6]: binds

B7: 60reg-2 (dsDNA)
DNA 1: ACGTTCATAATTGGAATCTTTTCAGGACAAATTGTCCTTTTTCCAACACTTAATTCTGGT
DNA 2: ACCAGAATTAAGTGTTGGAAAAAGGACAATTTGTCCTGAAAAGATTCCAATTATGAACGT
- binding result [7]: binds
- binding result [8]: binds

B8: 60reg-3 (dsDNA)
DNA 1: B7 DNA 1 with T20G, T21C, T40G, T41C
DNA 2: B7 DNA 2 with A20G, A21C, A40G, A41C
- binding result [7]: binds
